# Laboratory results published in patent publication US20150140169.
# T1: alpha-s1 casein from Bos taurus
# T1 chain: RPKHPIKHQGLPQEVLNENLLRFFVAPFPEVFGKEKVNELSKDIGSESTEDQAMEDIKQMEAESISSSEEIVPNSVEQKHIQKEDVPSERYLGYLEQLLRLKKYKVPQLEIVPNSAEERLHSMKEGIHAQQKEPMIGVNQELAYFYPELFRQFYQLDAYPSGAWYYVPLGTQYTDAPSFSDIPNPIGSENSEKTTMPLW
# Biological target: T1, alpha-s1 casein from Bos taurus
Protein,"(αSN1-1)/(αSN1), 6 hours, 11° C.","(αSN1-1)/(αSN1), 24 hours, 11° C.","αs1-I CN, 6 hours, 11° C. [Volume]","αs1-I CN, 24 hours, 11° C. [Volume]","αs1 CN, 6 hours, 11° C. [Volume]","αs1 CN, 24 hours, 11° C. [Volume]"
camel chymosin variant #143 (F223V) (protein) GKVAREPLTSYLDSQYFGKIYIGTPPQEFTVVFDTGSSDLWVPSIYCKSNVCKNHHRFDPRKSSTFRNLGKPLSIHYGTGSMEGFLGYDTVTVSNIVDPNQTVGLSTEQPGEVFTYSEFDGILGLAYPSLASEYSVPVFDNMMDRHLVARDLFSVYMDRNGQGSMLTLGAIDPSYYTGSLHWVPVTLQQYWQFTVDSVTINGVAVACVGGCQAILDTGTSVLVGPSSDILKIQMAIGATENRYGEFDVNCGNLRSMPTVVFEINGRDYPLSPSAYTSKDQGFCTSGFQGDNNSELWILGDVFIREYYSVFDRANNRVGLAKAI,1.1,2.4,2.62e+07,1e+07,2.36e+07,4.1e+06
camel chymosin variant #151 (D290A) (protein) GKVAREPLTSYLDSQYFGKIYIGTPPQEFTVVFDTGSSDLWVPSIYCKSNVCKNHHRFDPRKSSTFRNLGKPLSIHYGTGSMEGFLGYDTVTVSNIVDPNQTVGLSTEQPGEVFTYSEFDGILGLAYPSLASEYSVPVFDNMMDRHLVARDLFSVYMDRNGQGSMLTLGAIDPSYYTGSLHWVPVTLQQYWQFTVDSVTINGVAVACVGGCQAILDTGTSVLFGPSSDILKIQMAIGATENRYGEFDVNCGNLRSMPTVVFEINGRDYPLSPSAYTSKDQGFCTSGFQGANNSELWILGDVFIREYYSVFDRANNRVGLAKAI,1,2.5,2.29e+07,3.22e+07,2.31e+07,1.31e+07
camel chymosin variant #147 (Q288H) (protein) GKVAREPLTSYLDSQYFGKIYIGTPPQEFTVVFDTGSSDLWVPSIYCKSNVCKNHHRFDPRKSSTFRNLGKPLSIHYGTGSMEGFLGYDTVTVSNIVDPNQTVGLSTEQPGEVFTYSEFDGILGLAYPSLASEYSVPVFDNMMDRHLVARDLFSVYMDRNGQGSMLTLGAIDPSYYTGSLHWVPVTLQQYWQFTVDSVTINGVAVACVGGCQAILDTGTSVLFGPSSDILKIQMAIGATENRYGEFDVNCGNLRSMPTVVFEINGRDYPLSPSAYTSKDQGFCTSGFHGDNNSELWILGDVFIREYYSVFDRANNRVGLAKAI,1.1,3.3,2.28e+07,2.35e+07,2.15e+07,7e+06
camel chymosin variant #146 (Q288G) (protein) GKVAREPLTSYLDSQYFGKIYIGTPPQEFTVVFDTGSSDLWVPSIYCKSNVCKNHHRFDPRKSSTFRNLGKPLSIHYGTGSMEGFLGYDTVTVSNIVDPNQTVGLSTEQPGEVFTYSEFDGILGLAYPSLASEYSVPVFDNMMDRHLVARDLFSVYMDRNGQGSMLTLGAIDPSYYTGSLHWVPVTLQQYWQFTVDSVTINGVAVACVGGCQAILDTGTSVLFGPSSDILKIQMAIGATENRYGEFDVNCGNLRSMPTVVFEINGRDYPLSPSAYTSKDQGFCTSGFGGDNNSELWILGDVFIREYYSVFDRANNRVGLAKAI,0.9,2.3,2.17e+07,2.85e+07,2.38e+07,1.23e+07
camel chymosin variant #149 (Q288R) (protein) GKVAREPLTSYLDSQYFGKIYIGTPPQEFTVVFDTGSSDLWVPSIYCKSNVCKNHHRFDPRKSSTFRNLGKPLSIHYGTGSMEGFLGYDTVTVSNIVDPNQTVGLSTEQPGEVFTYSEFDGILGLAYPSLASEYSVPVFDNMMDRHLVARDLFSVYMDRNGQGSMLTLGAIDPSYYTGSLHWVPVTLQQYWQFTVDSVTINGVAVACVGGCQAILDTGTSVLFGPSSDILKIQMAIGATENRYGEFDVNCGNLRSMPTVVFEINGRDYPLSPSAYTSKDQGFCTSGFRGDNNSELWILGDVFIREYYSVFDRANNRVGLAKAI,1,3.3,2.16e+07,2.25e+07,2.22e+07,6.7e+06
camel chymosin variant #142 (F223Q) (protein) GKVAREPLTSYLDSQYFGKIYIGTPPQEFTVVFDTGSSDLWVPSIYCKSNVCKNHHRFDPRKSSTFRNLGKPLSIHYGTGSMEGFLGYDTVTVSNIVDPNQTVGLSTEQPGEVFTYSEFDGILGLAYPSLASEYSVPVFDNMMDRHLVARDLFSVYMDRNGQGSMLTLGAIDPSYYTGSLHWVPVTLQQYWQFTVDSVTINGVAVACVGGCQAILDTGTSVLQGPSSDILKIQMAIGATENRYGEFDVNCGNLRSMPTVVFEINGRDYPLSPSAYTSKDQGFCTSGFQGDNNSELWILGDVFIREYYSVFDRANNRVGLAKAI,0.7,1.7,2.55e+07,1.75e+07,3.72e+07,1.02e+07
